Experimental data: paper PMC3630089, “ATP-Dependent Chromatin Remodeling by Cockayne Syndrome Protein B and NAP1-Like Histone Chaperones Is Required for Efficient Transcription-Coupled DNA Repair” (PLoS Genetics, 2013)

Target: T1, CSBΔN1 (CSB lacking amino acids 245-365), purified from SF9 cells (human, UniProt Q03468 1-1493, removing amino acids 245–365)
T1 construct: CSB with the N1 region (amino acids 245-365) removed; probably Flag-tagged like the other SF9 CSB proteins; source: SF9 cells, purified
Test: pull-down; GST-NAP1L1 immobilized on glutathione beads, mixed with purified CSB or CSBΔN1; Western blot
Conditions: both partners purified

T1 sequence (Q03468 other isoform, or with tags, fused parts or gaps with the stated changes): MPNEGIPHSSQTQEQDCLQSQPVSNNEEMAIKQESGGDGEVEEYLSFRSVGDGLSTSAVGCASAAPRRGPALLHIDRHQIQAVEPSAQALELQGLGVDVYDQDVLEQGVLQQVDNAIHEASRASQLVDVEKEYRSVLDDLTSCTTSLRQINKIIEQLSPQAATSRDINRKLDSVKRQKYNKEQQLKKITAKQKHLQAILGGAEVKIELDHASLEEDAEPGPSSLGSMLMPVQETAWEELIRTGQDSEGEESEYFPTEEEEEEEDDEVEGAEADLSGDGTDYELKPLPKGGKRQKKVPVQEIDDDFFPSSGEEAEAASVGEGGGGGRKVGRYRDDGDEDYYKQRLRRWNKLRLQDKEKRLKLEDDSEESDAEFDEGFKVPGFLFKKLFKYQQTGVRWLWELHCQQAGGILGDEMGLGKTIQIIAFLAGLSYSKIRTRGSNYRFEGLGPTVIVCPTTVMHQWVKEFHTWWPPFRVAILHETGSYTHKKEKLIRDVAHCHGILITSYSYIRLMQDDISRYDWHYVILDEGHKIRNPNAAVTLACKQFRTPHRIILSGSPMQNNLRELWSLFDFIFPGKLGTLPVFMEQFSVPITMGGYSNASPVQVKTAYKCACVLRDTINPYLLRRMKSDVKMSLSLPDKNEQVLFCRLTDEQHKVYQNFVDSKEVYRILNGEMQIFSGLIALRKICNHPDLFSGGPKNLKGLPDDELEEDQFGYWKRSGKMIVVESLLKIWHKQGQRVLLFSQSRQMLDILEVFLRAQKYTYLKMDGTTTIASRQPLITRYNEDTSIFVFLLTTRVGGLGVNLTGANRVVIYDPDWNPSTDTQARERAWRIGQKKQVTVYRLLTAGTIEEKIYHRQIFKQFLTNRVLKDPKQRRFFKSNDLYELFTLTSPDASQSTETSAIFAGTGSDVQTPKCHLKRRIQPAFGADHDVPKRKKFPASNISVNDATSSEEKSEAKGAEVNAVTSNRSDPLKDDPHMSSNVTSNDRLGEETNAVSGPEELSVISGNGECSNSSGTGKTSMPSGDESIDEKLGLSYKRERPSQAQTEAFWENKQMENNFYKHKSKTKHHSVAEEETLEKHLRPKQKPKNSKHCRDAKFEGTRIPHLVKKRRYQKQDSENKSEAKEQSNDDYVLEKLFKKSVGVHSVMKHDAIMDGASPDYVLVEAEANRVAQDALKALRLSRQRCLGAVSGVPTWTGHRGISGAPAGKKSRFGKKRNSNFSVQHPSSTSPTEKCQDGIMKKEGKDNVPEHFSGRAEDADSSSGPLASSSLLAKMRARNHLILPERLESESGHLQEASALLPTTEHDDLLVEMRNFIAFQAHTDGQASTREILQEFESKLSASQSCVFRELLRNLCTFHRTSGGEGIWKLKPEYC

B1: GST-NAP1L1 fusion protein (natural protein, human, UniProt P55209 1-391, looked up)
chain: MADIDNKEQSELDQDLDDVEEVEEEETGEETKLKARQLTVQMMQNPQILAALQERLDGLVETPTGYIESLPRVVKRRVNALKNLQVKCAQIEAKFYEEVHDLERKYAVLYQPLFDKRFEIINAIYEPTEEECEWKPDEEDEISEELKEKAKIEDEKKDEEKEDPKGIPEFWLTVFKNVDLLSDMVQEHDEPILKHLKDIKVKFSDAGQPMSFVLEFHFEPNEYFTNEVLTKTYRMRSEPDDSDPFSFDGPEIMGCTGCQIDWKKGKNVTLKTIKKKQKHKGRGTVRTVTKTVSNDSFFNFFAPPEVPESGDLDDDAEAILAADFEIGHFLRERIIPRSVLYFTGEAIEDDDDDYDEEGEEADEEGEEEGDEENDPDYDPKKDQNPAECKQQ
notes: human NAP1-like histone chaperone NAP1L1; source: bacterially expressed, immobilized on glutathione beads
B1: binds.
